Reference: patent publication US20030199671A1, “Binding molecules for Fc-region polypeptides” (priority 2001, published 2003)
Like-named read-outs stand apart in the source and are kept apart here. Values belong to the molecule of their own block, whether it stands above or below them. Positions of bridges follow the written chain, without caps; N, C: chain ends. Residues, ends and D or L forms follow the SMILES beside them.

Experiments:
[1] = test system: human IgG; assay type: binding
Method in brief: (§1)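 Unfractionated IgG in PBST (10 mM phosphate, 150 mM NaCl, 0.01% Tween 20, pH 7.2) or TBST (50 mM Tris, pH 7.5) was batch-incubated with immobilized peptide resin for 1-1.5 h at room temperature. Unbound IgG was quantitated by A280, and percent bound was taken by subtraction from control values.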

[2] = molecular target: T1, human IgG1 (Homo sapiens, UniProt P01857); assay type: binding; settings: for % IgG Capture - Batch Binding, Human IgG1: Table 9, immobilized peptide, 5.0 mg/ml resin load
T1 construct: all human subtypes derived from myeloma patients; purchased Calbiochem 400120; host or cells: myeloma patients
Method in brief: (§2)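 Static binding, peptide resin + IgG, 1-1.5 h RT with shaking, PBST pH 7.2 or TBST pH 7.5. Flow-through read at A280 vs buffer blank; % bound = control minus unbound. Elution at pH 8.5 bicarbonate and/or pH 4.0 citrate, 30-60 min.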

[3] = molecular target: T2, human IgG2 (Homo sapiens, UniProt P01859); assay type: binding; settings: for % IgG Capture - Batch Binding, Human IgG2: Table 9, immobilized peptide, 5.0 mg/ml resin load
T2 construct: all human subtypes derived from myeloma patients; purchased Calbiochem 400122; host or cells: myeloma patients
Method in brief: (§3)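 Read-out is A280 of unbound IgG (1.4 mg/ml extinction coefficient), with percent bound derived against non-filtered or negative controls. Targets were incubated with immobilized peptides in PBST or TBST for 1-1.5 h at room temperature. Hydrolyzed Sepharose and immobilized Protein A serve as negative and positive controls.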

[4] = test system: mouse IgG; assay type: binding
Method in brief: as §1

[5] = test system: bovine IgG; assay type: binding; settings: Table 11; unfractionated IgG
Method in brief: as §1

[6] = test system: goat IgG; assay type: binding; settings: Table 11; unfractionated IgG
Method in brief: as §1

[7] = molecular target: IgG4 (Homo sapiens, UniProt P01861); assay type: binding; design: all human subtypes derived from myeloma patients; purchased Calbiochem 400126; host or cells: myeloma patients; settings: for % IgG Capture - Batch Binding, Human IgG4: Table 9, immobilized peptide, 5.0 mg/ml resin load
Method in brief: as §3

[8] = molecular target: IgG3 (Homo sapiens, UniProt P01860); assay type: binding; design: all human subtypes derived from myeloma patients; purchased Calbiochem 400124; host or cells: myeloma patients; settings: for % IgG Capture - Batch Binding, Human IgG3: Table 9, immobilized peptide, 5.0 mg/ml resin load
Method in brief: as §2

[9] = test system: human IgG; experiment: Dynamic (mini-column) binding capacity
Description: These media were used to determine the effect of ligand density on human IgG binding capacity in both static (filterplate) and dynamic (mini-column) modes with commercial immobilized recombinant Protein A (Repligen, IPA400) at a single density as control.
The IgG solution was loaded onto the column at a flow rate of 0.2 ml/minute (170 cm/hr). […] At the end of the loading period, the column was washed with PBS until the absorbance at 280 nm of the column eluant returned to baseline. […] Neutralizing the pH of the eluted fractions was unnecessary since the total IgG eluted was determined by total protein absorbance at 280 nm.
To establish total media capacities, IgG was loaded onto the columns until the absorbances of the column load and flow through streams were identical (loading to full capacity). After washing the column to baseline, bound IgG was eluted and the total amount captured from this elution fraction determined. The total capacity of the media (mg IgG/ml media) as total IgG captured divided by the column bed volume was calculated.
Additionally, column capacities at 10% breakthrough were calculated from the online A280 measurements of column flowthrough streams. The A280 curves obtained for the column of interest and for an equivalent “blank” column containing hydrolyzed Sepharose FF 4 media were aligned. The difference in areas between these curves (for a retained and non-retained target) from the time of injection to the time at which the A280 value for the column of interest had risen to 10% of the maximum A280 absorbance (100%) obtained for the load solution at 100% IgG capture saturation (10% breakthrough) was graphically integrated. A standard curve was used to relate the integrated area to mg IgG bound and capacity calculated as total IgG bound divided by column bed volume.

[10] = Table 14, average ligand density 1.8 μM/ml
[11] = Table 10, elution 0.1 M sodium bicarbonate buffer, pH 8.5
[12] = Table 10, elution 0.1 M sodium citrate buffer, pH 4.0

T2 sequence (P01859 1-326 isoform P01859-1): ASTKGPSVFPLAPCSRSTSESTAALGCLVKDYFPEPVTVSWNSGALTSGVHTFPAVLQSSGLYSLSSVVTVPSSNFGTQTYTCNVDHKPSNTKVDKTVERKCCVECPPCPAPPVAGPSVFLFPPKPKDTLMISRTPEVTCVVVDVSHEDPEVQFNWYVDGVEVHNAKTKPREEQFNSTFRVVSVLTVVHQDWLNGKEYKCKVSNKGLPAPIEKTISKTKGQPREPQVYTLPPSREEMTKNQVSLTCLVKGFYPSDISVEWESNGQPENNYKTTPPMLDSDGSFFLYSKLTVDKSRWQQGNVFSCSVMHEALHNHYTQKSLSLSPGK
IgG4, sequence (P01861 1-327 isoform P01861-1): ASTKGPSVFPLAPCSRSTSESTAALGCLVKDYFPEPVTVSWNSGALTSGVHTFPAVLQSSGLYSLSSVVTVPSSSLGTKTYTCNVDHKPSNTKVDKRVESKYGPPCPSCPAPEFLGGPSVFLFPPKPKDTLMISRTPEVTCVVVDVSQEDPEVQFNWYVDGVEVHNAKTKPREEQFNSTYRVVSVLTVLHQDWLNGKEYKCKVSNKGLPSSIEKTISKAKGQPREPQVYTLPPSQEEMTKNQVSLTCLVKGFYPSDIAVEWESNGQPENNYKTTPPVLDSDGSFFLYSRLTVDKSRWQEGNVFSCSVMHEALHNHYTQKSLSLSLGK
IgG3, sequence (P01860 1-377 isoform P01860-1): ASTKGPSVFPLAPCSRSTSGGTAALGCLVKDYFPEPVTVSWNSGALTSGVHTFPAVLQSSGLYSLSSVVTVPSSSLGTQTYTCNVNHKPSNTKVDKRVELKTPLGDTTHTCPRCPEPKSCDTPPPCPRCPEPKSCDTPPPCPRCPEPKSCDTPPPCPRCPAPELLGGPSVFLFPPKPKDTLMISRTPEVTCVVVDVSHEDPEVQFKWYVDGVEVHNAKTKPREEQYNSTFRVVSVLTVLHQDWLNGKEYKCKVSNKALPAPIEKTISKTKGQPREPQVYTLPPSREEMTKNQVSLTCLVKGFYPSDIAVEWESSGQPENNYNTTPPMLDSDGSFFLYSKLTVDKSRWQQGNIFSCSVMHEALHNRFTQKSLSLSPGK
T1 sequence (P01857 1-330 isoform P01857-1): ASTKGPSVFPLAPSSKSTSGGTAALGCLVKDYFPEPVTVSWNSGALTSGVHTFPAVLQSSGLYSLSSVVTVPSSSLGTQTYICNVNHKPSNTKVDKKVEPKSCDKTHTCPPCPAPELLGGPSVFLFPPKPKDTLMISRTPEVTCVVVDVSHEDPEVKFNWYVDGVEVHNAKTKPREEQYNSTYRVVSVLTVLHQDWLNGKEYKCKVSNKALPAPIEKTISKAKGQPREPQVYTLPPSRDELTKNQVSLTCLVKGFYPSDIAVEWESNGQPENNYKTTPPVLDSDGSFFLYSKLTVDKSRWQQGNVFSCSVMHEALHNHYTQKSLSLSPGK

% IgG Capture - Batch Binding, Human IgG ([1]; Table 11, unfractionated IgG): 4% | % IgG Capture - Batch Binding, Human IgG1 [2]: 13% | % IgG Capture - Batch Binding, Human IgG2 [3]: 15% | % IgG Capture - Batch Binding, Mouse IgG ([4]; Table 11, unfractionated IgG): 0% | % IgG Capture - Batch Binding, Bovine IgG [5]: 0% | % IgG Capture - Batch Binding, Goat IgG [6]: 0% | % IgG Capture - Batch Binding, Human IgG4 [7]: 9% | % IgG Capture - Batch Binding, Human IgG3 [8]: 76%
Molecule: CC[C@H](C)[C@@H]1NC(=O)[C@H](CCCCN)NC(=O)[C@@H](NC(=O)[C@H](Cc2c[nH]c3ccccc23)NC(=O)[C@H](Cc2ccc(O)cc2)NC(=O)[C@H](CO)NC(=O)CNC(=O)[C@H](C)NC(C)=O)CSSC[C@@H](C(=O)N2CCC[C@H]2C(=O)N[C@@H](CCC(N)=O)C(=O)N[C@@H](CO)C(=O)N2CCC[C@H]2C(=O)NCC(=O)N2CCC[C@H]2C(=O)N[C@@H](CCC(=O)O)C(=O)NCC(=O)NCC(=O)NCC(=O)N[C@@H](CCCCN)C(N)=O)NC(=O)[C@H](C(C)C)NC(=O)[C@H](CC(=O)O)NC(=O)[C@H](Cc2c[nH]c3ccccc23)NC1=O [DX392] (Ac-AGSYWCKIWDVCPQSPGPEGGGK-NH2; disulfide 6-12 (inferred))

% IgG Capture - Batch Binding, Human IgG ([1]; Table 11, unfractionated IgG): 19% | % IgG Capture - Batch Binding, Human IgG1 [2]: 21% | % IgG Capture - Batch Binding, Human IgG2 [3]: 2% | % IgG Capture - Batch Binding, Mouse IgG ([4]; Table 11, unfractionated IgG): 0% | % IgG Capture - Batch Binding, Bovine IgG [5]: 0% | % IgG Capture - Batch Binding, Goat IgG [6]: 0% | % IgG Capture - Batch Binding, Human IgG4 [7]: 4% | % IgG Capture - Batch Binding, Human IgG3 [8]: 85%
Molecule: CC(=O)N[C@@H](C)C(=O)NCC(=O)N[C@@H](CCCCN)C(=O)N[C@@H](Cc1ccc(O)cc1)C(=O)N[C@@H](Cc1c[nH]c2ccccc12)C(=O)N[C@H]1CSSC[C@@H](C(=O)N2CCC[C@H]2C(=O)N[C@@H](C)C(=O)N[C@@H](CC(N)=O)C(=O)N2CCC[C@H]2C(=O)NCC(=O)N2CCC[C@H]2C(=O)N[C@@H](CCC(=O)O)C(=O)NCC(=O)NCC(=O)NCC(=O)N[C@@H](CCCCN)C(N)=O)NC(=O)[C@H](C(C)C)NC(=O)CNC(=O)[C@H](Cc2c[nH]c3ccccc23)NC(=O)[C@H](CC(C)C)NC(=O)[C@H](CC(N)=O)NC1=O [DX395]

% IgG Capture - Batch Binding, Human IgG ([1]; Table 11, unfractionated IgG): 54% | % IgG Capture - Batch Binding, Human IgG [1, 10]: 71% | Batch Binding (% Capture of Total Load) hIgG ([1]; peptide immobilized on NHS activated sepharose 4 fast flow, target ligand density 2.0 μmole/ml, batch filterplate, hIgG): 79% | % IgG Capture - Batch Binding, Human IgG1 [2]: 58% | Human IgG1 elu pH 8.5 (% of Total Load) [2, 11]: 44% | Human IgG1 elu pH 4.0 (% of Total Load) [2, 12]: 14% | hIgG1 elution pH 2.5 (% of Total Load) ([2]; Table 13): 78% | hIgG1 elution pH 3.0 (% of Total Load) ([2]; Table 13): 75% | hIgG1 elution pH 3.5 (% of Total Load) ([2]; Table 13): 54% | hIgG1 elution pH 4.5 (% of Total Load) ([2]; Table 13): 55% | hIgG1 elution pH 5.5 (% of Total Load) ([2]; Table 13): 8% | hIgG1 elution pH 9.0 (% of Total Load) ([2]; Table 13): 44% | hIgG1 elution pH 9.5 (% of Total Load) ([2]; Table 13): 45% | Batch Binding (% Capture of Total Load) hIgG1 ([2]; peptide immobilized on NHS activated sepharose 4 fast flow, target ligand density 2.0 μmole/ml, batch filterplate, hIgG1): 88% | Human IgG2 elu pH 8.5 (% of Total Load) [3, 11]: 32% | Human IgG2 elu pH 4.0 (% of Total Load) [3, 12]: 12% | hIgG2 elution pH 2.5 (% of Total Load) ([3]; Table 13): 78% | hIgG2 elution pH 3.0 (% of Total Load) ([3]; Table 13): 69% | hIgG2 elution pH 3.5 (% of Total Load) ([3]; Table 13): 55% | hIgG2 elution pH 4.5 (% of Total Load) ([3]; Table 13): 31% | hIgG2 elution pH 9.0 (% of Total Load) ([3]; Table 13): 42% | hIgG2 elution pH 9.5 (% of Total Load) ([3]; Table 13): 47% | Batch Binding (% Capture of Total Load) hIgG2 ([3]; peptide immobilized on NHS activated sepharose 4 fast flow, target ligand density 2.0 μmole/ml, batch filterplate, hIgG2): 80% | % IgG Capture - Batch Binding, Mouse IgG ([4]; Table 11, unfractionated IgG): 2% | % IgG Capture - Batch Binding, Mouse IgG [4, 10]: 2% | % IgG Capture - Batch Binding, Human IgG4 [7]: 33% | Human IgG4 elu pH 8.5 (% of Total Load) [7, 11]: 22% | hIgG4 elution pH 2.5 (% of Total Load) ([7]; Table 13): 49% | hIgG4 elution pH 3.0 (% of Total Load) ([7]; Table 13): 49% | hIgG4 elution pH 3.5 (% of Total Load) ([7]; Table 13): 53% | hIgG4 elution pH 4.5 (% of Total Load) ([7]; Table 13): 23% | hIgG4 elution pH 5.5 (% of Total Load) ([7]; Table 13): 4% | hIgG4 elution pH 9.0 (% of Total Load) ([7]; Table 13): 45% | hIgG4 elution pH 9.5 (% of Total Load) ([7]; Table 13): 62% | Batch Binding (% Capture of Total Load) hIgG4 ([7]; peptide immobilized on NHS activated sepharose 4 fast flow, target ligand density 2.0 μmole/ml, batch filterplate, hIgG4): 58% | % IgG Capture - Batch Binding, Human IgG3 [8]: 7% | Human IgG3 elu pH 4.0 (% of Total Load) [8, 12]: 5% | Capacity (mg IgG/mL resin) 10% Breakthrough ([9]; Ligand Density 0.17 μM/mL): 0.1 mg IgG/mL resin | Capacity (mg IgG/mL resin) Total Dynamic ([9]; Ligand Density 0.17 μM/mL): 0.6 mg IgG/mL resin | Capacity (mg IgG/mL resin) 10% Breakthrough ([9]; Ligand Density 0.84 μM/mL): 2.6 mg IgG/mL resin | Capacity (mg IgG/mL resin) Total Dynamic ([9]; Ligand Density 0.84 μM/mL): 5.8 mg IgG/mL resin | Capacity (mg IgG/mL resin) 10% Breakthrough ([9]; Ligand Density 1.45 μM/mL): 2.9 mg IgG/mL resin | Capacity (mg IgG/mL resin) Total Dynamic ([9]; Ligand Density 1.45 μM/mL): 6.4 mg IgG/mL resin | Capacity (mg IgG/mL resin) 10% Breakthrough ([9]; Ligand Density 2.75 μM/mL): 8.5 mg IgG/mL resin | Capacity (mg IgG/mL resin) Total Dynamic ([9]; Ligand Density 2.75 μM/mL): 24.1 mg IgG/mL resin
Molecule: Ac-GDRRACSRDWSGALVWCAGHEPGPEGGGK-NH2 (not fully specified (bridges); printed as Ac-GDRRACSRDWSGALVWCAGHEPGPEGGGK-NH2; cysteine pairing not given here) [DX253]
